Test results as given in paper PMC12578639.

What was measured:
[1] = target: ThsB2-His6 (Sau–Thoeris ThsB2 with a C-terminal hexahistidyl tag) (Staphylococcus aureus 08BA02176); test: SEC + other: mass photometry; complex assembled from individually purified subunits in the presence of NAD+; Superdex 200 Increase 10/300 GL, 25 mM Tris pH 7.5, 200 mM NaCl, 5% glycerol, 1 mM dithiothreitol; peaks analysed by SDS–PAGE; mass photometry at 100–200 nM
[2] = target: His6-ThsB1 (Sau–Thoeris ThsB1 with an N-terminal hexahistidyl tag) (Staphylococcus aureus 08BA02176); test: as above

Molecule: ThsB2-His6 (Sau–Thoeris ThsB2 with a C-terminal hexahistidyl tag) (natural protein)
- stoichiometry N [1]: 2

B1: Major head protein (Mhp) of phage Φ80α, gp47 (natural protein)
chain: ASNNVKPQVFNPDNVMMHEKKDGTLMNEFTTPILQEVMENSKIMQLGKYEPMEGTEKKFTFWADKPGAYWVGEGQKIETSKATWVNATMRAFKLGVILPVTKEFLNYTYSQFFEEMKPMIAEAFYKKFDEAGILNQGNNPFGKSIAQSIEKTNKVIKGDFTQDNIIDLEALLEDDELEANAFISKTQNRSLLRKIVDPETKERIYDRNSDSLDGLPVVNLKSSNLKRGELITGDFDKLIYGIPQLIEYKIDETAQLSTVKNEDGTPVNLFEQDMVALRATMHVALHIADDKAFAKLVPADKRTDSVPGEV
- stoichiometry N [2]: 1
